Data reported in US6822075.

What was measured:
[1] = target: Human polyclonal IgG (human); assay: affinity constant, method not stated; table prints no power of ten
[2] = target: Human polyclonal IgG (human); assay: affinity constant, method not stated; same result as the 1st table, row 8, column 7 but printed with its power of ten

B1: Protein LG (protein)
chain: AVENKEETPETPETDSEEEVTIKANLIFANGSTQTAEFKGTFEKATSEAYAYADTLKKDNGEYTVDVADKGYTLNIKFAGKEKTPEEPKEEVTIKANLIYADGKTQTAEFKGTFEEATAEAYRYADALKKDNGEYTVDVADKGYTLNIKFAGKEKTPEEPKEEVTIKANLIYADGKTQTAEFKGTFEEATAEAYRYADLLAKENGKYTVDVADKGYTLNIKFAGKEKTPEEPKEEVTIKANLIYADGKTQTAEFKGTFAEATAEAYRYADLLAKENGKYTADLEDGGYTINIRFAGKKVDEKPEEPMDTYKLILNGKTLKGETTTEAVDAATAEKVFKQYANDNGVDGEWTYDDATKTFTVTEKPEVIDASELTPAVTTYKLVINGKTLKGETTTKAVDAETAEKAFKQYANDNGVDGVWTYDDATKTFTVTEM
[1]
  Ka: 20 M⁻¹
[2]
  Ka: 2e+10 M⁻¹
